B1: TolA (natural protein, E. coli, UniProt P19934 1-421, looked up)
chain: MSKATEQNDKLKRAIIISAVLHVILFAALIWSSFDENIEASAGGGGGSSIDAVMVDSGAVVEQYKRMQSQESSAKRSDEQRKMKEQQAAEELREKQAAEQERLKQLEKERLAAQEQKKQAEEAAKQAELKQKQAEEAAAKAAADAKAKAEADAKAAEEAAKKAAADAKKKAEAEAAKAAAEAQKKAEAAAAALKKKAEAAEAAAAEARKKAATEAAEKAKAEAEKKAAAEKAAADKKAAAEKAAADKKAAEKAAAEKAAADKKAAAEKAAADKKAAAAKAAAEKAAAAKAAAEADDIFGELSSGKNAPKTGGGAKGNNASPAGSGNTKNNGASGADINNYAGQIKSAIESKFYDASSYAGKTCTLRIKLAPDGMLLDIKPEGGDPALCQAALAAAKLAKIPKPPSQAVYEVFKNAPLDFKP
B2: TolQ (natural protein, E. coli)
chain: MTDMNILDLFLKASLLVKLIMLILIGFSIASWAIIIQRTRILNAAAREAEAFEDKFWSGIELSRLYQESQGKRDNLTGSEQIFYSGFKEFVRLHRANSHAPEAVVEGASRAMRISMNRELENLETHIPFLGTVGSISPYIGLFGTVWGIMHAFIALGAVKQATLQMVAPGIAEALIATAIGLFAAIPAVMAYNRLNQRVNKLELNYDNFMEEFTAILHRQAFTVSESNKG

Tests used:
TolQ = target: B2; assay: co-purification
[1] = target: T1, TolR with an octahistidine-tag at the C-terminus (E. coli, UniProt P0ABV6 1-142); assay: co-purification
T1 sequence: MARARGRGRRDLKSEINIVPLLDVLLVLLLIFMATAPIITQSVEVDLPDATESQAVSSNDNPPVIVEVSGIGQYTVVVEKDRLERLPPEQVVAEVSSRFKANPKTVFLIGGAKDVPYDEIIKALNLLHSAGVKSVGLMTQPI

cryo-EM structure = target: the molecule itself; assay: cryo-EM structure

Row | Binder | stoichiometry N (TolQ) | stoichiometry N [1] | stoichiometry N (cryo-EM structure)
1 | B1 | ~4.5 TolQ per TolA | ~1.5 TolR per TolA | 
2 | B2 |  |  | 5

Source: doi:10.1101/2024.11.27.625625 (bioRxiv, 2024)
